Source: PMC8860596 (Nucleic Acids Research, 2021)

Experiments:
CreYin [1] = target: T1, CreYin (P1 phage, UniProt P06956 1-343, D33A;A36V;R192A); assay: native MS
CreYang [2] = target: T2, CreYang (P1 phage, UniProt P06956 1-343, R72E;L115D;R119D); assay: native MS
CreYin;CreYang [3] = target: T3, CreYin;CreYang (P1 phage;P1 phage, UniProt P06956;P06956 1-343;1-343, D33A;A36V;R192A|R72E;L115D;R119D); assay: native MS
Cre K201A [4] = target: T4, Cre K201A (P1 phage, UniProt P06956 1-343, K201A); assay: cryo-EM
CreYin;CreYang [5] = target: T3, CreYin;CreYang; assay: cryo-EM
Cre deltaN (CreΔαN) = Cre deltaN (CreΔαN) (P1 phage, UniProt P06956 1-330); assay: EMSA
CreYin;CreYang [6] = target: T3, CreYin;CreYang; assay: EMSA
Cre K201A [7] = target: T4, Cre K201A; assay: EMSA
CreYang [8] = target: T2, CreYang; assay: EMSA
CreYin [9] = target: T1, CreYin; assay: EMSA
native gel or EMSA = target: the molecule itself; assay: native gel or EMSA
CreYin [10] = target: T1, CreYin; assay: cryo-EM

B1: loxP-38 (dsDNA)
DNA 1: CGATAACTTCGTATAATGTATGCTATACGAAGTTATGC
DNA 2: GCATAACTTCGTATAGCATACATTATACGAAGTTATCG
CreYin [1]
  binding result: binds
CreYang [2]
  binding result: binds
CreYin;CreYang [3]
  binding result: binds

B2: loxP-44 (dsDNA)
DNA 1: CGGCGATAACTTCGTATAATGTATGCTATACGAAGTTATGCGGC
DNA 2: GCCGCATAACTTCGTATAGCATACATTATACGAAGTTATCGCCG
Cre K201A [4]
  binding result: binds
CreYin;CreYang [5]
  binding result: binds

B3: loxP-54 (dsDNA)
DNA 1: CGAGTGGCCGATAACTTCGTATAATGTATGCTATACGAAGTTATGCGGCGTGAC
DNA 2: GTCACGCCGCATAACTTCGTATAGCATACATTATACGAAGTTATCGGCCACTCG
Cre deltaN (CreΔαN)
  binding result: binds
CreYin;CreYang [6]
  binding result: binds
Cre K201A [7]
  binding result: binds
CreYang [8]
  binding result: binds
CreYin [9]
  binding result: binds

B4: Cre recombinase K201A (cleavage-deficient variant) (enzyme, P1 phage)
chain: MSNLLTVHQNLPALPVDATSDEVRKNLMDMFRDRQAFSEHTWKMLLSVCRSWAAWCKLNNRKWFPAEPEDVRDYLLYLQARGLAVKTIQQHLGQLNMLHRRSGLPRPSDSNAVSLVMRRIRKENVDAGERAKQALAFERTDFDQVRSLMENSDRCQDIRNLAFLGIAYNTLLRIAEIARIRVKDISRTDGGRMLIHIGRTATLVSTAGVEKALSLGVTKLVERWISVSGVADDPNNYLFCRVRKNGVAAPSATSQLSTRALEGIFEATHRLIYGAKDDSGQRYLAWSGHSARVGAARDMARAGVSIPEIMQAGGWTNVNIVMNYIRNLDSETGAMVRLLEDGD
Native gel or EMSA
  stoichiometry N: 4

## GCATAACTTCGTATAGCATATGCGAAGCATATGCTATACGAAGTTATGC (structured_DNA) [loxA hairpin]
CreYin [10]
  binding result: binds
